Laboratory results published in US20260000597A1 (priority 2018, published 2026).

Biological target: AchR (Homo sapiens, UniProt P02708)
Test: ELISA of screened peptide phages on AchR versus streptavidin (OD450)
Type: binding
Settings: ELISA of selected 11-mer (L2) peptide phages on AchR, absorbance at 450 nm; Spep-2 positive control
Protocol: The output phages for the 4th and 5th rounds of biopanning in Example 13-1 were inoculated to E. coli, and plated on the agar plates so as to form 100-200 plaques per plate. The plaques were inoculated on 1 ml of an SB liquid medium containing 50 μg/ml of ampicillin by using a sterile tip, and cultured with shaking at 37° C. for 5 hours, followed by the addition of 30 μl of helper phages, and then cultured at 37° C. and 200 rpm for one day. The culture was centrifuged at 12,000 rpm for 2 minutes to collect supernatant, and 2% BSA was added to the supernatant, and used for phage screening.
In a 96-well ELISA plate, 5 μg/ml AchR or streptavidin was added at 50 μl per well, and left at 4° C. overnight. The next day, the solution in each well was discarded, followed by the addition of 2% BSA, and then blocked at room temperature for 2 hours. After the solution was all discarded, the wells were washed three times with Tris (20 mM, pH7). In addition, 100 μl of each of the phage solutions obtained from the above-prepared plaques was dispensed into wells and left at 30° C. for 1 hour. After the solution in the wells was all discarded, the wells were washed three times with Tris (20 mM, pH 7), and then the HRP-conjugated anti-M13 antibody diluted 1:2,000 was added at 100 μl per well, followed by culture at 30° C. for 1 hour. After the wells were washed three times with Tris (20 mM, pH7), 100 μl of tetramethylbenzidine was added to each well to induce a color development reaction, and then the reaction was stopped by the addition of 100 μl of 1M H2SO4, and the absorbance at 450 nm (OD450) was measured. The measured absorbance was converted into a ratio of AchR absorbance to streptavidin absorbance (AchR signal/streptavidin signal), and the results are shown in FIGS. 14 to 16.

Chain of AchR (P02708 21-457): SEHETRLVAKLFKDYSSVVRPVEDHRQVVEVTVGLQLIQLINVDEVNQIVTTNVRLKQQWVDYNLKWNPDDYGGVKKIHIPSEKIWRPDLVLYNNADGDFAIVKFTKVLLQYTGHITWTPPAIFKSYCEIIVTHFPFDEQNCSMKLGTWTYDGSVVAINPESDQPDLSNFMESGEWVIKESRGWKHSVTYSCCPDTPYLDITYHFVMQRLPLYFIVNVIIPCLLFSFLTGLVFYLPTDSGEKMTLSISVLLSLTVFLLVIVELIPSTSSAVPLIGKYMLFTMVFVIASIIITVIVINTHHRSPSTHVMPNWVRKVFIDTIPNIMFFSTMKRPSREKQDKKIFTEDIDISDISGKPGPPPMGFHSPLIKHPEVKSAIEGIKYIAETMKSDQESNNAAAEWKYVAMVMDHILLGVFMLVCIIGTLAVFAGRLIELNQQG

| Substance | OD |
| --- | --- |
| L2-91 (PIDKFKRGMVR; AchR binding peptide) [Peptide L2-91] | 0.517 |
| L2-92 (FVGRWKREYAK; AchR binding peptide) [Peptide L2-92] | 0.634 |
| L2-93 (FNPKMRKVCLR; AchR binding peptide) [Peptide L2-93] | 0.635 |
| L2-94 (NPGKTKRWLQR; AchR binding peptide) [Peptide L2-94] | 0.642 |
| L2-95 (IMDKRRKPGCR; AchR binding peptide) [Peptide L2-95] | 0.522 |
| L2-96 (ISDKAKRQHFK; AchR binding peptide) [Peptide L2-96] | 0.708 |
| L2-97 (DVNKYRKHSHK; AchR binding peptide) [Peptide L2-97] | 0.531 |
| L2-98 (LMLRGKRLTTK; AchR binding peptide) [Peptide L2-98] | 0.626 |
| L2-99 (CSLRARKEEWR; AchR binding peptide) [Peptide L2-99] | 0.52 |
| L2-100 (MNYRCKRVQER; AchR binding peptide) [Peptide L2-100] | 0.551 |
| L2-101 (NGVRERKWQSK; AchR binding peptide) [Peptide L2-101] | 0.592 |
| L2-102 (YTSRCKKQPRK; AchR binding peptide) [Peptide L2-102] | 0.608 |
| L2-103 (QYNKGRKIHVR; AchR binding peptide) [Peptide L2-103] | 0.571 |
| L2-104 (PEDRQRKTWFK; AchR binding peptide) [Peptide L2-104] | 0.563 |
| L2-105 (IEMKPRKFGVK; AchR binding peptide) [Peptide L2-105] | 0.488 |
| L2-106 (QRWKWRKSLAR; AchR binding peptide) [Peptide L2-106] | 0.926 |
| L2-107 (VKHKERKCQRR; AchR binding peptide) [Peptide L2-107] | 0.681 |
| L2-108 (QQDRPKRDIPK; AchR binding peptide) [Peptide L2-108] | 0.716 |
| L2-109 (YPTKGKRCMIR; AchR binding peptide) [Peptide L2-109] | 0.596 |
| L2-111 (GYFRPRKETCK; AchR binding peptide) [Peptide L2-111] | 0.594 |
| L2-112 (CFFKMRRCNTK; AchR binding peptide) [Peptide L2-112] | 0.646 |
| L2-113 (QNDKDRKLSHR; AchR binding peptide) [Peptide L2-113] | 0.64 |
| L2-114 (QVTKSKRVAFK; AchR binding peptide) [Peptide L2-114] | 0.643 |
| L2-115 (VRAKHRKSSLR; AchR binding peptide) [Peptide L2-115] | 0.837 |
| L2-116 (SHSRQRKTPLR; AchR binding peptide) [Peptide L2-116] | 0.699 |
| L2-117 (DNGKIRRCLGK; AchR binding peptide) [Peptide L2-117] | 0.607 |

| Substance | OD |
| --- | --- |
| L2-118 (FLRRLKKVHWK; AchR binding peptide) [Peptide L2-118] | 0.65 |
| L2-119 (FCRRSKKIGRR; AchR binding peptide) [Peptide L2-119] | 0.56 |
| L2-120 (PAARTKRMYGR; AchR binding peptide) [Peptide L2-120] | 0.607 |
| L2-121 (HETKPKKDGLR; AchR binding peptide) [Peptide L2-121] | 0.492 |
| L2-122 (MGDRPRKWDSR; AchR binding peptide) [Peptide L2-122] | 0.558 |
| L2-123 (HDTKCKKMYAK; AchR binding peptide) [Peptide L2-123] | 0.473 |
| L2-124 (NVVRGRRLECR; AchR binding peptide) [Peptide L2-124] | 0.556 |
| L2-125 (PADKGRREVMK; AchR binding peptide) [Peptide L2-125] | 0.481 |
| L2-126 (AMMKYKKEFPK; AchR binding peptide) [Peptide L2-126] | 0.605 |
| L2-127 (YIIRWKRQMTR; AchR binding peptide) [Peptide L2-127] | 0.569 |
| L2-128 (SPWRIRRQNIR; AchR binding peptide) [Peptide L2-128] | 0.516 |
| L2-129 (TCIKYRRAHTK; AchR binding peptide) [Peptide L2-129] | 0.603 |
| L2-130 (GYDRARKGTLR; AchR binding peptide) [Peptide L2-130] | 0.64 |
| L2-131 (MTLKHRRVYIK; AchR binding peptide) [Peptide L2-131] | 0.462 |
| L2-132 (LFTRIKRLVCK; AchR binding peptide) [Peptide L2-132] | 0.515 |
| L2-133 (DFSRDRRCLSK; AchR binding peptide) [Peptide L2-133] | 0.526 |
| L2-134 (VWNKVKRWLER; AchR binding peptide) [Peptide L2-134] | 0.44 |
| L2-135 (FPGKNRKYCSR; AchR binding peptide) [Peptide L2-135] | 0.557 |
| L2-136 (YTSKNKRGCPR; AchR binding peptide) [Peptide L2-136] | 0.454 |
| L2-137 (CACKQRRATSR; AchR binding peptide) [Peptide L2-137] | 0.452 |
| L2-138 (IMERQRKSQHR; AchR binding peptide) [Peptide L2-138] | 0.509 |
| L2-139 (SVLRCRKCSMK; AchR binding peptide) [Peptide L2-139] | 0.528 |
| L2-140 (YPQKLRRTALK; AchR binding peptide) [Peptide L2-140] | 0.445 |
| L2-141 (SSHKGKRAQSK; AchR binding peptide) [Peptide L2-141] | 0.462 |
| L2-142 (DNPRFRKTILK; AchR binding peptide) [Peptide L2-142] | 0.512 |
| L2-143 (AIIKFRKVQWK; AchR binding peptide) [Peptide L2-143] | 0.401 |

| Substance | OD |
| --- | --- |
| L2-144 (PYTRCRKEICK; AchR binding peptide) [Peptide L2-144] | 0.521 |
| L2-145 (MNEKPKKNDQK; AchR binding peptide) [Peptide L2-145] | 0.468 |
| L2-146 (LIGKFKKPFYR; AchR binding peptide) [Peptide L2-146] | 0.605 |
| L2-147 (TWCKHKKLDMK; AchR binding peptide) [Peptide L2-147] | 0.641 |
| L2-148 (DSNKVRKCSSK; AchR binding peptide) [Peptide L2-148] | 0.604 |
| L2-149 (LPMKQRKCEFR; AchR binding peptide) [Peptide L2-149] | 0.465 |
| L2-150 (EDVRVKRQTCR; AchR binding peptide) [Peptide L2-150] | 0.579 |
| L2-151 (TQCKDRRVSDR; AchR binding peptide) [Peptide L2-151] | 0.749 |
| L2-152 (IALKPKRVWLK; AchR binding peptide) [Peptide L2-152] | 0.681 |
| L2-153 (GHQRGKREGSR; AchR binding peptide) [Peptide L2-153] | 0.688 |
| L2-154 (NPFKYKKICPK; AchR binding peptide) [Peptide L2-154] | 0.736 |
| L2-155 (NEARIKKCDVK; AchR binding peptide) [Peptide L2-155] | 0.742 |
| L2-156 (YGLRMRKWYMK; AchR binding peptide) [Peptide L2-156] | 0.683 |
| L2-157 (NFYKCRKLQCK; AchR binding peptide) [Peptide L2-157] | 0.731 |
| L2-158 (MMTKYKKTCCK; AchR binding peptide) [Peptide L2-158] | 0.73 |
| L2-159 (CNQKTKKIAEK; AchR binding peptide) [Peptide L2-159] | 0.696 |
| L2-160 (ADIRMKKWYPK; AchR binding peptide) [Peptide L2-160] | 0.721 |
| L2-161 (AWFRVKRSNCR; AchR binding peptide) [Peptide L2-161] | 0.579 |
| L2-162 (NCDRTRKHWAR; AchR binding peptide) [Peptide L2-162] | 0.584 |
| L2-163 (PHARTRKNITK; AchR binding peptide) [Peptide L2-163] | 0.725 |
| L2-164 (VPTKMKKYETK; AchR binding peptide) [Peptide L2-164] | 0.733 |
| L2-165 (AYPKFRKTFNR; AchR binding peptide) [Peptide L2-165] | 0.718 |
| L2-166 (QQLRLRKLCGK; AchR binding peptide) [Peptide L2-166] | 0.579 |
| L2-167 (MFMRNKKLAWR; AchR binding peptide) [Peptide L2-167] | 0.584 |
| L2-168 (GGAKNKKVVSR; AchR binding peptide) [Peptide L2-168] | 0.725 |
